Data published in patent US20110263000.

Legend:
[1] = molecular target: T1, bovine fibrinogen (Sigma Company), P02672
T1 chain 1: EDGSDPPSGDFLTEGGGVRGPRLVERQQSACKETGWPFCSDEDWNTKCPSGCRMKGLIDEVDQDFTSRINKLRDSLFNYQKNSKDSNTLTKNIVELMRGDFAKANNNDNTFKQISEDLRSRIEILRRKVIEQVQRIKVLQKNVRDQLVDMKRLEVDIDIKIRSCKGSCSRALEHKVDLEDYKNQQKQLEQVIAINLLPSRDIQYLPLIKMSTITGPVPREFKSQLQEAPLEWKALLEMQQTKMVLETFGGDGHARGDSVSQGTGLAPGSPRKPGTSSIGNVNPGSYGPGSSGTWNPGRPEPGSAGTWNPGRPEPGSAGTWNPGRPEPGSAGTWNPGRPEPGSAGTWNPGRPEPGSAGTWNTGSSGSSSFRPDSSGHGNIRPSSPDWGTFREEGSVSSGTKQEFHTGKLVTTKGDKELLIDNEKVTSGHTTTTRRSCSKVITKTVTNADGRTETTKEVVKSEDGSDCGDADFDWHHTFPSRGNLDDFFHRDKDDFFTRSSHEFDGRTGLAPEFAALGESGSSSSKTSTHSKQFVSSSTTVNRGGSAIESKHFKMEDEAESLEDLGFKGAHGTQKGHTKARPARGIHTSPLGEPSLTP
T1 chain 2: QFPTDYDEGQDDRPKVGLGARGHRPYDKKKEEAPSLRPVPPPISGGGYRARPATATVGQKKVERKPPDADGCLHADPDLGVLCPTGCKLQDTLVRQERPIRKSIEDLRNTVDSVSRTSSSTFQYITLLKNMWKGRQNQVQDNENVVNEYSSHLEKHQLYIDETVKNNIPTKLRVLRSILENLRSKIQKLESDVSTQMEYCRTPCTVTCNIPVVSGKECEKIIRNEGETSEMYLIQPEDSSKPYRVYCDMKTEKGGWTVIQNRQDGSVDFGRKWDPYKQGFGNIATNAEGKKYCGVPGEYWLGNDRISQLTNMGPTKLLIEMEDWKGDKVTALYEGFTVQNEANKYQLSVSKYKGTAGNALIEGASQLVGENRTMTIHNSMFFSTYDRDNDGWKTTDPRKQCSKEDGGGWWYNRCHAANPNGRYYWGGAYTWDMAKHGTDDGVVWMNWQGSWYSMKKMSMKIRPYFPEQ
T1 chain 3: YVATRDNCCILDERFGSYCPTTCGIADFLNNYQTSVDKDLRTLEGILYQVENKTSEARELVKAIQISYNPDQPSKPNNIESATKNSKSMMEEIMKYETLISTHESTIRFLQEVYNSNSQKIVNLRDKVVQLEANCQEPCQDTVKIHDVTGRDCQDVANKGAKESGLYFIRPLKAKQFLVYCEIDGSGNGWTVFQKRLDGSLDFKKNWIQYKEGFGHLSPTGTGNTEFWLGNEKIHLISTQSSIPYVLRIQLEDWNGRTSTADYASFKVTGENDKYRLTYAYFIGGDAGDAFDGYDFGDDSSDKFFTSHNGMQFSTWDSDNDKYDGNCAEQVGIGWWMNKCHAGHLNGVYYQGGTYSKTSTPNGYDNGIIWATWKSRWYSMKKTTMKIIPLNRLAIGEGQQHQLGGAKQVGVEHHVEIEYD

[2] = molecular target: T2, human fibrinogen, P02671
T2 chain 1: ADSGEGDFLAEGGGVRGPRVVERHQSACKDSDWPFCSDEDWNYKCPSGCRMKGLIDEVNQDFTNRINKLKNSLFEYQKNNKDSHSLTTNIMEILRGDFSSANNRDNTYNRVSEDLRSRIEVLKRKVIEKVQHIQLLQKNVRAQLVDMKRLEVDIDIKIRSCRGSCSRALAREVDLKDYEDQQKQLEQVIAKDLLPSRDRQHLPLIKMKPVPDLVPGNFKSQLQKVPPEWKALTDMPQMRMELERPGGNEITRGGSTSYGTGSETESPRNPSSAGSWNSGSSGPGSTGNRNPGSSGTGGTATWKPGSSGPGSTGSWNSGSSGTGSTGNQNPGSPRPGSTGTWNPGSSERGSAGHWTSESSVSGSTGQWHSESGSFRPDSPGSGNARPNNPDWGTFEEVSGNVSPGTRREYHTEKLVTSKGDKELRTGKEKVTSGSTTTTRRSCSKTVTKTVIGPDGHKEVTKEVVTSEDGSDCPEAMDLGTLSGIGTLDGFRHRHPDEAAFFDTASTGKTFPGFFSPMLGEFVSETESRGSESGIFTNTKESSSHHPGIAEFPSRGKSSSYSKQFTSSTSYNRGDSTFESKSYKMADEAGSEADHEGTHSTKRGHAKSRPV
T2 chain 2: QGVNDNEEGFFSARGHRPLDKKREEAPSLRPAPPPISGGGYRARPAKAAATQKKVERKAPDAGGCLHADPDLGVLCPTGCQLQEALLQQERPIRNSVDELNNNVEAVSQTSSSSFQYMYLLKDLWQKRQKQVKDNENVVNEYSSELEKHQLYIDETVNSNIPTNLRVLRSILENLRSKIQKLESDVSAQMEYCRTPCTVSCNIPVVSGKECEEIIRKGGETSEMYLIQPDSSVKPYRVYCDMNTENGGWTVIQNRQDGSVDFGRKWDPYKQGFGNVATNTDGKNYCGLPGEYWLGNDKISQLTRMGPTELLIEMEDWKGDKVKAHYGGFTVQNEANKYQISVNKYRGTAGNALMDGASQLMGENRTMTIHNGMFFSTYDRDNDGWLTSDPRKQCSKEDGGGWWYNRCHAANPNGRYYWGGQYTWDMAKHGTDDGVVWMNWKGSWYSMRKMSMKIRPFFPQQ
T2 chain 3: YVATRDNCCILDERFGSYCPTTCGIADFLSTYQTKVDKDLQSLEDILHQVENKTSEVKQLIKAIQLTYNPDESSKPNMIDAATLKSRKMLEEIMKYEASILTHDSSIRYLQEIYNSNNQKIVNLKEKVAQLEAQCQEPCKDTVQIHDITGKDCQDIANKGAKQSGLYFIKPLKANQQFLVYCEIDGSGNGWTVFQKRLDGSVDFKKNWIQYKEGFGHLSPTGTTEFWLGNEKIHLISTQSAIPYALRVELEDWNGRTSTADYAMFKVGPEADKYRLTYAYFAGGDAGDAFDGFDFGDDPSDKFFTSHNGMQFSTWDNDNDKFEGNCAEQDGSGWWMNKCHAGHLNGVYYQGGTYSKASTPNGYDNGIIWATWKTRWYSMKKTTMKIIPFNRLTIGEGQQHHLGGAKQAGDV

B1: hemocoagulase of Agkistrodon acutus (protein)
chain 1: DCSSGWSSYEGHCYKVFKQSKTWADAESFCTKQVNGGHLVSLESSGEADFVGQLLAQKLKSAKLHVWLGLRAQNKEKQCSLQWSDGSSLSYENWLEEESKKCLGVHLETGFHKWENFYCEQQDPFVCEA
chain 2: DCPSDWSSYEGHCYKPFNEPKNWADAENFCTKQHTGGHLVSFQSTEEADFVVKLAFQTFDYGLFWFGLSKLWNQCNWQWSNAAMLKYTDWAEESYCVYFKSTNNKWRSLTCRMLANFVCEFQA
Agglutination time (tube 1#, 10 µl distilled water added) [1]: 50 s
Agglutination time (tube 2#, 10 µl isopropanol added) [1]: 50 s
Agglutination time (tube 3#, 10 µl PMSF added) [1]: more than 600 seconds
hydrolysis of human fibrinogen, SDS-PAGE after 0.5 h, 1 h, 2 h and 4 h at 37° C. [2]: After the fibrinogen was treated with the hemocoagulase (1 unit) for 0.5 h and 1 h, the band of alpha subunit became gradually light, and after being treated for 2 h and 4 h, the band of alpha subunit disappeared completely
